The test addresses 4-Ig human B7H3 (analyte of the Biacore SPR) (Homo sapiens, UniProt Q5ZPR3). Nature of the test: SPR.

4-Ig human B7H3 (analyte of the Biacore SPR), sequence (Q5ZPR3 29-466): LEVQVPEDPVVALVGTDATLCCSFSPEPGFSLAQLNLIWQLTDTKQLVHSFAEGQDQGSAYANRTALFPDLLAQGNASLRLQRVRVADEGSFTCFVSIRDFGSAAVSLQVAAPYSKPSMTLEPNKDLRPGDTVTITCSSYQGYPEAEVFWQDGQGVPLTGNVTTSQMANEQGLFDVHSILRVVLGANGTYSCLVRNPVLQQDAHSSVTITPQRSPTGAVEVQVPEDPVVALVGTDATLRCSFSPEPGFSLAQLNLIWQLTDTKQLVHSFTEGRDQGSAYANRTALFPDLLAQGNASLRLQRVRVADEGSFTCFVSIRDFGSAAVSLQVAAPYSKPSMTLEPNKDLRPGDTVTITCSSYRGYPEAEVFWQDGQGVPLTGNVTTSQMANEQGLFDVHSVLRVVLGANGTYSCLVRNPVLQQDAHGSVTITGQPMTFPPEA

B1: MGA271 whole antibody in human IgG1 format (antibody, V domains shown)
VH: EVQLVESGGGLVQPGGSLRLSCAASGFTFSSFGMHWVRQAPGKGLEWVAYISSDSSAIYYADTVKGRFTISRDNAKNSLYLQMNSLRDEDTAVYYCGRGRENIYYGSRLDYWGQGTTVTVSS
VL: DIQLTQSPSFLSASVGDRVTITCKASQNVDTNVAWYQQKPGKAPKALIYSASYRYSGVPSRFSGSGSGTDFTLTISSLQPEDFATYYCQQYNNYPFTFGQGTKLEIK
For B1, the Kd was determined as 1.61 nM.

B2: TE9 whole antibody in human IgG1 format (antibody, V domains shown)
VH: QVQLQQSGAALVKPGTSVKLSCKASGYTFTSYWMHWVKQRPGQGLEWIGMIHPKSGSVDYNEKFTNKATLTGDKSSGTAYMQLSSLTSEDSAVYYCARGGYGSPFDYWGQGTTVTVSS
VL: ENVLTQSPAIMSASPGEKVTMTCSASSSVSYMYWYQQKPGSSPRLLIYRTSNLASGVPARFSGSGSGTSYSLTISSMEAEDAATYYCQQWSSNPPTFGGGTKLEIK
With B2, binding was characterised by a dissociation constant (Kd) of 0.44 nM.

(Values after PMC12325614 (Nature Communications, 2025).)
